Patent US20240018269A1 (MACFARLANE BURNET INSTITUTE FOR MEDICAL RESEARCH AND PUBLIC …, published 2024)

Assays:
[1] = target: T1, recombinant soluble FcγRIIb (human, UniProt P31994 43-217); test: BLI (Octet); anti-TNP IgG captured on TNP-BSA-biotin, rsFcγR in solution; global 1:1 Langmuir fit
T1 construct: extracellular domain; also called rsFcγRIIb
T1 sequence (looked up): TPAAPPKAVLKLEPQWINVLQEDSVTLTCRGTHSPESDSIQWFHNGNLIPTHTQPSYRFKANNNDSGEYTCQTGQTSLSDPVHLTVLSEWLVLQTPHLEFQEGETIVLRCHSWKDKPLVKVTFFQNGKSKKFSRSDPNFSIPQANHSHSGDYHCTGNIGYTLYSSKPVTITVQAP
Method: (§1) Affinity measurements of IgG:FcR interaction using Bio-Layer Interferometry (OCTET) TNP-BSA was reacted with the EZ-Link™ biotinylation reagent (ThermoFisher Scientific) according to the manufacturer's instructions. The resulting TNP-BSA-biotin (5 μg/ml, 30 sec) was captured to ˜0.8 nm on streptavidin BLI probes using an Octet Red96 (ForteBio; Molecular Devices LLC, San Jose, CA, United States of America) then loaded with anti-TNP IgG (4 μg/ml, 75 sec). A baseline was established (60 sec) followed by the association and dissociation (90s) of a concentration series (15 nM to 20 μM) of rsFcγRIIa-R131 or rsFcγRIIb. Regeneration after each initial reaction TNP-BSA-biotin capture and the subsequent binding cycles used 10 mM HCl.

[2] = target: T2, recombinant soluble FcγRIIa-Arg131 (human, UniProt P12318 34-217); test: as above
T2 construct: extracellular domain; Arg131 allelic form; also called rsFcγRIIa-R131
T2 sequence (looked up): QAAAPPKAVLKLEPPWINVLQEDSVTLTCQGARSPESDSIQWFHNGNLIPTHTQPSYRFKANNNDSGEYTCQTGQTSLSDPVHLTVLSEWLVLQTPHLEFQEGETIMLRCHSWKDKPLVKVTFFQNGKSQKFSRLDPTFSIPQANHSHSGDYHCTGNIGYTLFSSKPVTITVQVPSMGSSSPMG
Method: as §1

[3] = target: T3, human FcγRIIb expressed on the cell surface (human, UniProt P31994 43-310); test: cell-based or functional assay
T3 sequence (looked up): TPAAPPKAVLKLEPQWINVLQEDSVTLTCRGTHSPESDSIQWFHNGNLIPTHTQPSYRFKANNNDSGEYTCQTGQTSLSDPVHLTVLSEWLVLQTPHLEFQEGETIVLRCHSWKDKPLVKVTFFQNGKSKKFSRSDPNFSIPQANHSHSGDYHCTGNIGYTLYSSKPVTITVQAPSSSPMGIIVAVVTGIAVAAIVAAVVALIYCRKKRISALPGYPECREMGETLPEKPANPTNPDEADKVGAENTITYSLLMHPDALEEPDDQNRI

[4] = target: T3, human FcγRIIb expressed on the cell …; test: flow cytometry; monomeric IgG on IIA1.6 cells expressing FcγRIIb, single site fit of MFI
Method: (§2) Antibody FcγR binding was measured using either immune complexes or monomeric IgG. Immune complexes were generated by incubating the anti-TNP antibodies (parental or mutant anti-TNP IgG) with TNP-BSA at a 2:1 ratio (40 μg/ml:20 μg/ml) for 30 minutes at 37° C. then 10 minutes at 4° C. […] The cells were washed twice, resuspended in […] PBS/0.5% BSA and 10,000 viable cells analysed in at least three experiments. Monomer IgG binding (MFI) were fitted to a single binding site model to determine binding affinity (KA). Similarly immune complex binding is reported as apparent affinity (K app).
In an attempt to further improve FcγRIIb specificity, two residues in CH2 of the Fc domain were additionally modified (see Table 1). Particularly, two mutations S267E and L328F (SELF) which have been used in the IgG1 backbone (Chu S Y et al., Mol Immunol 45(15):3926-3933, 2008) were introduced into the IgG2- and IgG4-based mAbs, IgG2-FLGG, IgG2-FEGG and IgG4-FEGG, as well as the parental IgG4 antibody. The antibodies were then tested for specificity (see FIGS. 4-6) and inhibitory potency in allergen specific (FIG. 3) and anti-IgE BAT (FIG. 7). Several effects were apparent.

[5] = target: T4, human FcγRIIIa-F158 expressed on the cell surface (human, UniProt P08637 17-254); test: flow cytometry; immune complexes on IIA1.6 cells expressing the FcγR
T4 construct: whole, on cells; Co-expressed with the FcR common γ chain (FcRγ-EGFP)
Method: as §2

[6] = target: T5, human FcγRIIIa-V158 expressed on the cell surface (human, UniProt P08637 17-254); test: as above
T5 construct: whole, on cells; Co-expressed with the FcR common γ chain (FcRγ-EGFP)
Method: as §2

[7] = target: T6, human FcγRI expressed on the cell surface (human, UniProt P12314 16-374); test: flow cytometry; monomeric IgG on IIA1.6 cells expressing FcγRI
T6 construct: whole, on cells; Co-expressed with the FcR common γ chain
Method: as §2

T4 sequence (P08637 17-254): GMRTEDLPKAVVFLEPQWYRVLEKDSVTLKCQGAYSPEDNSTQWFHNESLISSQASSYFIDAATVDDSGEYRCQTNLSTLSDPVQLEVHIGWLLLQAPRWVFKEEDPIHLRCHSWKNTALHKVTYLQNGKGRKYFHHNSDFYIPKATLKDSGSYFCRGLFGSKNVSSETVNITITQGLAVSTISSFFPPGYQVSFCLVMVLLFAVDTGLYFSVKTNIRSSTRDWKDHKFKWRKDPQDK
T5 sequence (P08637 17-254 F176V): as the sequence (P08637 17-254) above, with F160V counted along it
T6 sequence (P12314 16-374): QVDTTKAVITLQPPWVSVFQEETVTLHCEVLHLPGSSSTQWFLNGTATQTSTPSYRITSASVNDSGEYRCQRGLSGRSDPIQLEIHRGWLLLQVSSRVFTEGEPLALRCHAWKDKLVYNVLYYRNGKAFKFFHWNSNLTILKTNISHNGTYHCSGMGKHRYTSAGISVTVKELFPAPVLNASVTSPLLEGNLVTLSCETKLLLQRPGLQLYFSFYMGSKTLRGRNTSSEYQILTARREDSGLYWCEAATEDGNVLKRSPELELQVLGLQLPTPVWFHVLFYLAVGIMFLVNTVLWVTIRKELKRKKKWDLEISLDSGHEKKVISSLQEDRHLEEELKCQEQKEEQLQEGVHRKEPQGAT

B1: anti-TNP IgG2-SELF (antibody)
heavy: EVQLQESGPSLVKPSQTLSLTCSVTGDSITSGYWNWIRQVPGNKLEYMGFINYSGNTYYNPSLRSRISITRDTSKNQYFLHLNSVTTEDTATYYCARANWDVFAYWGQGTLVTVSAASTKGPSVFPLAPCSRSTSESTAALGCLVKDYFPEPVTVSWNSGALTSGVHTFPAVLQSSGLYSLSSVVTVPSSNFGTQTYTCNVDHKPSNTKVDKTVERKCCVECPPCPAPPVAGPSVFLFPPKPKDTLMISRTPEVTCVVVDVEHEDPEVQFNWYVDGVEVHNAKTKPREEQFNSTFRVVSVLTVVHQDWLNGKEYKCKVSNKGFPAPIEKTISKTKGQPREPQVYTLPPSREEMTKNQVSLTCLVKGFYPSDIAVEWESNGQPENNYKTTPPMLDSDGSFFLYSKLTVDKSRWQQGNVFSCSVMHEALHNHYTQKSLSLSLGK
light: not shown
**Q.** Which Ka [1] does the source give for B1 here?
**A.** 3.4e+07 M⁻¹

**Q.** And the Ka [2]?
**A.** 9.1e+07 M⁻¹

B2: chimeric anti-TNP human IgG2-FLGG (antibody)
heavy: EVQLQESGPSLVKPSQTLSLTCSVTGDSITSGYWNWIRQVPGNKLEYMGFINYSGNTYYNPSLRSRISITRDTSKNQYFLHLNSVTTEDTATYYCARANWDVFAYWGQGTLVTVSAASTKGPSVFPLAPCSRSTSESTAALGCLVKDYFPEPVTVSWNSGALTSGVHTFPAVLQSSGLYSLSSVVTVPSSNFGTQTYTCNVDHKPSNTKVDKTVERKCCVECPPCPAPEFLGGPSVFLFPPKPKDTLMISRTPEVTCVVVDVSHEDPEVQFNWYVDGVEVHNAKTKPREEQFNSTFRVVSVLTVVHQDWLNGKEYKCKVSNKGLPAPIEKTISKTKGQPREPQVYTLPPSREEMTKNQVSLTCLVKGFYPSDIAVEWESNGQPENNYKTTPPMLDSDGSFFLYSKLTVDKSRWQQGNVFSCSVMHEALHNHYTQKSLSLSLGK
light: not shown
notes: The entry includes a leader; the C-terminal LGK may differ
**Q.** Which results are given for B2?
**A.** % inhibition of Api m 1 induced basophil activation (washed blood BAT) [3]: 85%; IC50 of inhibition of basophil activation (whole blood BAT) [3]: 1.6 µg/mL; Ka [1]: 830000 M⁻¹

B3: Anti-TNP mAb formatted as IgG2-FLGG-SELF mutant (antibody)
heavy: EVQLQESGPSLVKPSQTLSLTCSVTGDSITSGYWNWIRQVPGNKLEYMGFINYSGNTYYNPSLRSRISITRDTSKNQYFLHLNSVTTEDTATYYCARANWDVFAYWGQGTLVTVSAASTKGPSVFPLAPCSRSTSESTAALGCLVKDYFPEPVTVSWNSGALTSGVHTFPAVLQSSGLYSLSSVVTVPSSNFGTQTYTCNVDHKPSNTKVDKTVERKCCVECPPCPAPEFLGGPSVFLFPPKPKDTLMISRTPEVTCVVVDVEHEDPEVQFNWYVDGVEVHNAKTKPREEQFNSTFRVVSVLTVVHQDWLNGKEYKCKVSNKGFPAPIEKTISKTKGQPREPQVYTLPPSREEMTKNQVSLTCLVKGFYPSDIAVEWESNGQPENNYKTTPPMLDSDGSFFLYSKLTVDKSRWQQGNVFSCSVMHEALHNHYTQKSLSLSLGK
light: not shown
**Q.** For B3, which “IC50 of inhibition of basophil activation (whole blood BAT)” value (“IC50 of inhibition … (whole blood BAT)” for short) [3] is on record?
**A.** 0.24 µg/mL

**Q.** What about the Ka [4] of the same binder?
**A.** 8.9e+07 M⁻¹

**Q.** Does B3 bind [5]?
**A.** no binding

**Q.** Does B3 bind [6]?
**A.** no binding

**Q.** And the Ka [1]?
**A.** 1.03e+08 M⁻¹

**Q.** And the Ka [2]?
**A.** 6.3e+08 M⁻¹

B4: chimeric anti-TNP human IgG2-LLGG (antibody)
heavy: EVQLQESGPSLVKPSQTLSLTCSVTGDSITSGYWNWIRQVPGNKLEYMGFINYSGNTYYNPSLRSRISITRDTSKNQYFLHLNSVTTEDTATYYCARANWDVFAYWGQGTLVTVSAASTKGPSVFPLAPCSRSTSESTAALGCLVKDYFPEPVTVSWNSGALTSGVHTFPAVLQSSGLYSLSSVVTVPSSNFGTQTYTCNVDHKPSNTKVDKTVERKCCVECPPCPAPELLGGPSVFLFPPKPKDTLMISRTPEVTCVVVDVSHEDPEVQFNWYVDGVEVHNAKTKPREEQFNSTFRVVSVLTVVHQDWLNGKEYKCKVSNKGLPAPIEKTISKTKGQPREPQVYTLPPSREEMTKNQVSLTCLVKGFYPSDIAVEWESNGQPENNYKTTPPMLDSDGSFFLYSKLTVDKSRWQQGNVFSCSVMHEALHNHYTQKSLSLSLGK
light: not shown
notes: The entry includes a leader
**Q.** Which results are given for B4?
**A.** % inhibition of Api m 1 induced basophil activation (washed blood BAT) [3]: 81%; Ka [1]: 800000 M⁻¹

B5: Anti-TNP mAb formatted as IgG2-FEGG-SELF mutant (antibody)
heavy: EVQLQESGPSLVKPSQTLSLTCSVTGDSITSGYWNWIRQVPGNKLEYMGFINYSGNTYYNPSLRSRISITRDTSKNQYFLHLNSVTTEDTATYYCARANWDVFAYWGQGTLVTVSAASTKGPSVFPLAPCSRSTSESTAALGCLVKDYFPEPVTVSWNSGALTSGVHTFPAVLQSSGLYSLSSVVTVPSSNFGTQTYTCNVDHKPSNTKVDKTVERKCCVECPPCPAPEFEGGPSVFLFPPKPKDTLMISRTPEVTCVVVDVEHEDPEVQFNWYVDGVEVHNAKTKPREEQFNSTFRVVSVLTVVHQDWLNGKEYKCKVSNKGFPAPIEKTISKTKGQPREPQVYTLPPSREEMTKNQVSLTCLVKGFYPSDIAVEWESNGQPENNYKTTPPMLDSDGSFFLYSKLTVDKSRWQQGNVFSCSVMHEALHNHYTQKSLSLSLGK
light: not shown
**Q.** B5 was tested. Which “IC50 of inhibition … (whole blood BAT)” value [3] did it give?
**A.** 0.38 µg/mL

**Q.** And the Ka [4]?
**A.** 3.2e+07 M⁻¹

**Q.** Does B5 bind [7]?
**A.** no binding

**Q.** And the Ka [1]?
**A.** 2.9e+07 M⁻¹

**Q.** What about the Ka [2] of the same binder?
**A.** 1.88e+08 M⁻¹

B6: chimeric anti-TNP human IgG4-SELF (antibody)
heavy: EVQLQESGPSLVKPSQTLSLTCSVTGDSITSGYWNWIRQVPGNKLEYMGFINYSGNTYYNPSLRSRISITRDTSKNQYFLHLNSVTTEDTATYYCARANWDVFAYWGQGTLVTVSAASTKGPSVFPLAPCSRSTSESTAALGCLVKDYFPEPVTVSWNSGALTSGVHTFPAVLQSSGLYSLSSVVTVPSSSLGTKTYTCNVDHKPSNTKVDKRVESKYGPPCPSCPAPEFLGGPSVFLFPPKPKDTLMISRTPEVTCVVVDVEQEDPEVQFNWYVDGVEVHNAKTKPREEQFNSTYRVVSVLTVLHQDWLNGKEYKCKVSNKGFPSSIEKTISKAKGQPREPQVYTLPPSQEEMTKNQVSLTCLVKGFYPSDIAVEWESNGQPENNYKTTPPVLDSDGSFFLYSRLTVDKSRWQEGNVFSCSVMHEALHNHYTQKSLSLSLGK
light: not shown
**Q.** How did the “IC50 of inhibition … (whole blood BAT)” value [3] turn out when B6 was run?
**A.** 1.1 µg/mL
